One substance from paper doi:10.1101/2021.10.26.465098 can be followed below.

In this assay the target is HAdV-C5, -D26 and -B35. The experiment in a line: SPR.

Consider “human neutrophil protein 1 (HNP-1) (from UniProt P59665 65-94) (peptide)”, for which the Kd lay within 0.037 to 0.076 µM.
